Measurements published in the Human Domainome abundance scans (Beltran et al. 2025).
± gives the uncertainty stated by the source.

experiment: abundance fitness (aPCA) (normalised: wild type 0, dead -1); higher = more abundant; growth selection in yeast, the domain comes from the species named; conditions: Homo sapiens

Substance | abundance fitness
Lipoamide acyltransferase component of branched-chain alpha-keto acid dehydrogenase complex, mitochondrial I205V, P11182 | 0.028 ± 0.042
Lipoamide acyltransferase component of branched-chain alpha-keto acid dehydrogenase complex, mitochondrial G195K, P11182 | -0.566 ± 0.13
Lipoamide acyltransferase component of branched-chain alpha-keto acid dehydrogenase complex, mitochondrial V177M, P11182 | -0.329 ± 0.078
Lipoamide acyltransferase component of branched-chain alpha-keto acid dehydrogenase complex, mitochondrial L188R, P11182 | -0.647 ± 0.04
Lipoamide acyltransferase component of branched-chain alpha-keto acid dehydrogenase complex, mitochondrial G193P, P11182 | -0.08 ± 0.051
Lipoamide acyltransferase component of branched-chain alpha-keto acid dehydrogenase complex, mitochondrial E210S, P11182 | -0.019 ± 0.042
Lipoamide acyltransferase component of branched-chain alpha-keto acid dehydrogenase complex, mitochondrial L180F, P11182 | -0.027 ± 0.095
Lipoamide acyltransferase component of branched-chain alpha-keto acid dehydrogenase complex, mitochondrial A176P, P11182 | -0.203 ± 0.043
Lipoamide acyltransferase component of branched-chain alpha-keto acid dehydrogenase complex, mitochondrial R179K, P11182 | -0.021 ± 0.052
Lipoamide acyltransferase component of branched-chain alpha-keto acid dehydrogenase complex, mitochondrial T213R, P11182 | 0.066 ± 0.045
Lipoamide acyltransferase component of branched-chain alpha-keto acid dehydrogenase complex, mitochondrial S194K, P11182 | -0.378 ± 0.057
Nanos homolog 2 H95Q, P60321 | -0.092 ± 0.071
Lipoamide acyltransferase component of branched-chain alpha-keto acid dehydrogenase complex, mitochondrial N207D, P11182 | -0.009 ± 0.049
Lipoamide acyltransferase component of branched-chain alpha-keto acid dehydrogenase complex, mitochondrial K202M, P11182 | -0.089 ± 0.053
Lipoamide acyltransferase component of branched-chain alpha-keto acid dehydrogenase complex, mitochondrial V191M, P11182 | -0.075 ± 0.051
Lipoamide acyltransferase component of branched-chain alpha-keto acid dehydrogenase complex, mitochondrial L180D, P11182 | -0.895 ± 0.16
Lipoamide acyltransferase component of branched-chain alpha-keto acid dehydrogenase complex, mitochondrial K202R, P11182 | -0.001 ± 0.037
Nanos homolog 2 I92Y, P60321 | -0.308 ± 0.14
Lipoamide acyltransferase component of branched-chain alpha-keto acid dehydrogenase complex, mitochondrial I200Q, P11182 | -0.643 ± 0.07
Lipoamide acyltransferase component of branched-chain alpha-keto acid dehydrogenase complex, mitochondrial V192Q, P11182 | -0.023 ± 0.046
Lipoamide acyltransferase component of branched-chain alpha-keto acid dehydrogenase complex, mitochondrial G193S, P11182 | -0.308 ± 0.056
Lipoamide acyltransferase component of branched-chain alpha-keto acid dehydrogenase complex, mitochondrial L180H, P11182 | -0.938 ± 0.17
Lipoamide acyltransferase component of branched-chain alpha-keto acid dehydrogenase complex, mitochondrial K202P, P11182 | 0.011 ± 0.052
Lipoamide acyltransferase component of branched-chain alpha-keto acid dehydrogenase complex, mitochondrial D197F, P11182 | -0.26 ± 0.17
Lipoamide acyltransferase component of branched-chain alpha-keto acid dehydrogenase complex, mitochondrial L201A, P11182 | -0.315 ± 0.041

Substance | abundance fitness
Lipoamide acyltransferase component of branched-chain alpha-keto acid dehydrogenase complex, mitochondrial N207L, P11182 | -0.048 ± 0.048
Lipoamide acyltransferase component of branched-chain alpha-keto acid dehydrogenase complex, mitochondrial S194M, P11182 | -0.628 ± 0.082
Lipoamide acyltransferase component of branched-chain alpha-keto acid dehydrogenase complex, mitochondrial R178F, P11182 | -0.261 ± 0.1
Lipoamide acyltransferase component of branched-chain alpha-keto acid dehydrogenase complex, mitochondrial L209E, P11182 | -0.153 ± 0.04
Lipoamide acyltransferase component of branched-chain alpha-keto acid dehydrogenase complex, mitochondrial I186C, P11182 | -0.239 ± 0.074
Lipoamide acyltransferase component of branched-chain alpha-keto acid dehydrogenase complex, mitochondrial I205N, P11182 | -0.551 ± 0.11
Lipoamide acyltransferase component of branched-chain alpha-keto acid dehydrogenase complex, mitochondrial D204G, P11182 | -0.806 ± 0.042
Lipoamide acyltransferase component of branched-chain alpha-keto acid dehydrogenase complex, mitochondrial T171Y, P11182 | -0.022 ± 0.062
Lipoamide acyltransferase component of branched-chain alpha-keto acid dehydrogenase complex, mitochondrial R199I, P11182 | -0.142 ± 0.09
Lipoamide acyltransferase component of branched-chain alpha-keto acid dehydrogenase complex, mitochondrial T213D, P11182 | 0.049 ± 0.058
Lipoamide acyltransferase component of branched-chain alpha-keto acid dehydrogenase complex, mitochondrial K211I, P11182 | -0.122 ± 0.061
Lipoamide acyltransferase component of branched-chain alpha-keto acid dehydrogenase complex, mitochondrial I200S, P11182 | -0.76 ± 0.042
Lipoamide acyltransferase component of branched-chain alpha-keto acid dehydrogenase complex, mitochondrial R199T, P11182 | -0.006 ± 0.062
Lipoamide acyltransferase component of branched-chain alpha-keto acid dehydrogenase complex, mitochondrial I205C, P11182 | -0.16 ± 0.052
Lipoamide acyltransferase component of branched-chain alpha-keto acid dehydrogenase complex, mitochondrial T171K, P11182 | -0.061 ± 0.069
Lipoamide acyltransferase component of branched-chain alpha-keto acid dehydrogenase complex, mitochondrial K196R, P11182 | -0.026 ± 0.039
Lipoamide acyltransferase component of branched-chain alpha-keto acid dehydrogenase complex, mitochondrial G214H, P11182 | 0.016 ± 0.17
Lipoamide acyltransferase component of branched-chain alpha-keto acid dehydrogenase complex, mitochondrial E203F, P11182 | -0.409 ± 0.14
Lipoamide acyltransferase component of branched-chain alpha-keto acid dehydrogenase complex, mitochondrial L206Q, P11182 | -0.028 ± 0.051
Lipoamide acyltransferase component of branched-chain alpha-keto acid dehydrogenase complex, mitochondrial K211M, P11182 | -0.073 ± 0.051
Lipoamide acyltransferase component of branched-chain alpha-keto acid dehydrogenase complex, mitochondrial R199W, P11182 | -0.117 ± 0.046
Nanos homolog 2 D85A, P60321 | 0.03 ± 0.11
Lipoamide acyltransferase component of branched-chain alpha-keto acid dehydrogenase complex, mitochondrial D197T, P11182 | -0.45 ± 0.06
Lipoamide acyltransferase component of branched-chain alpha-keto acid dehydrogenase complex, mitochondrial G193I, P11182 | -0.951 ± 0.12
Lipoamide acyltransferase component of branched-chain alpha-keto acid dehydrogenase complex, mitochondrial I205R, P11182 | -0.343 ± 0.035
